Reference: PMC12630593

Assays:
Test in all cases: EMSA
NFI-X193 R121P = NFI-X193 R121P (mouse, UniProt P70257 14-193, R121P)
NFI-X193 (NFI-X DBD) = NFI-X193 (NFI-X DBD) (mouse, UniProt P70257 14-193)
NFI-X193 R115W = NFI-X193 R115W (mouse, UniProt P70257 14-193, R115W)
NFI-X193 K125E = NFI-X193 K125E (mouse, UniProt P70257 14-193, K125E)
NFI-X193 K113E = NFI-X193 K113E (mouse, UniProt P70257 14-193, K113E)
NFI-X193 R116P = NFI-X193 R116P (mouse, UniProt P70257 14-193, R116P)
NFI-X193 R116Q = NFI-X193 R116Q (mouse, UniProt P70257 14-193, R116Q)

B1: NFI-31bp Cy5 probe (dsDNA)
DNA 1: GGGTCTCTTTGGCAGGCAGCCAACCAGCAAA
DNA 2: TTTGCTGGTTGGCTGCCTGCCAAAGAGACCC
NFI-X193 R121P
  binding result: binds
NFI-X193 (NFI-X DBD)
  Kd: 48.1 ± 0.49 nM
NFI-X193 R115W
  binding result: no binding
NFI-X193 K125E
  binding result: no binding
NFI-X193 K113E
  binding result: no binding
NFI-X193 R116P
  binding result: no binding
NFI-X193 R116Q
  binding result: no binding
